Values of other authors, collected in PMC2975797.
pKd: −log10 of the molar value.

Biological target: von Willebrand factor (Homo sapiens) (UniProt P04275)

pKd: > 9.30
Substance: Factor VIII (from UniProt P00451)
